Assay results: PMC5463187

Molecular target: RSV strain A2 pre-fusion F, single-chain triple mutant (SC-TM) construct (respiratory syncytial virus subgroup A strain A2)
Assay: crystal structure

**Q.** Which stoichiometry N does the source give for “RSV strain A2 pre-fusion F, single-chain triple mutant (SC-TM) construct (natural protein)” here?
**A.** 3
